From patent US9791436B2, “Protease-based biosensor” (priority 2012, dated 2017) come the findings set out here.

Residue numbers refer to the chain shown, from its start.

B1: 68-GP: thrombin-inducible autoinhibited TVMV biosensor, SEQ ID NO: 4 (protein)
chain: SSGSKALLKGVRDFNPISACVCLLENSSDGHSERLFGIGFGPYIIANQHLFRRNNGELTIKTMHGEFKVKNSTQLQMKPVEGRDIIVIKMAKDFPPFPQKLKFRQPTIKDRVCMVSTNFQQKSVSSLVSESSHIVHMRDTSFWQHWITTKDGQCGSPLVSIIDGNILGIHSLTHTTNGSNYFVEFPEKFVATYLDAADGWCKNWKFNADKISWGSFILWEDSGLVPRGVSGEGEYVRFGPGSTHHHHHH
modifications: protease construct
B2: 68-AP: thrombin-inducible autoinhibited TVMV biosensor, SEQ ID NO: 5 (protein)
chain: B1 chain with G239A
modifications: protease construct
B3: H6-143: thrombin-inducible autoinhibited TVMV biosensor, SEQ ID NO: 6 (protein)
chain: SSGSKALLKGVRDFNPISACVCLLENSSDGHSERLFGIGFGPYIIANQHLFRRNNGELTIKTMHGEFKVKNSTQLQMKPVEGRDIIVIKMAKDFPPFPQKLKFRQPTIKDRVCMVSTNFQQKSVSSLVSESSHIVHKEDTSFWQHWITTKDGQCGSPLVSIIDGNILGIHSLTHTTNGSNYFVEFPEKFVATYLDAADGWCKNWKFNADKISWGSFYLYEDAPEDFMSGLVPRGVGREYVRFAPGSTHHHHHH
modifications: protease construct
B4: H6-68: thrombin-inducible autoinhibited TVMV biosensor, SEQ ID NO: 7 (protein)
chain: B3 chain with Y217I, Y219W
modifications: protease construct
B5: H6-AP: thrombin-inducible autoinhibited TVMV biosensor, SEQ ID NO: 1 (protein)
chain: B3 chain with Y217T, Y219V, Y239T
modifications: protease construct
B6: 2B4-AP: thrombin-inducible autoinhibited TVMV biosensor, SEQ ID NO: 3 (protein)
chain: SSGSKALLKGVRDFNPISACVCLLENSSDGHSERLFGIGFGPYIIANQHLFRRNNGELTIKTMHGEFKVKNSTQLQMKPVEGRDIIVIKMAKDFPPFPQKLKFRQPTIKDRVCMVSTNFQQKSVSSLVSESSHIVHMRDTSFWQHWITTKDGQCGSPLVSIIDGNILGIHSLTHTTNGSNYFVEFPEKFVATYLDAADGWCKNWKFNADKISWGSFTLVEDAPSGLVPRGVSGEGETVRFAPGSTHHHHHH
modifications: protease construct
B7: 2B4-GP: thrombin-inducible autoinhibited TVMV biosensor, SEQ ID NO: 2 (protein)
chain: B6 chain with A241G
modifications: protease construct
B8: SH3-TVMV-AC-AI-37-2: SH3-domain-tagged TVMV-based allosteric receptor, SEQ ID NO: 28 (protein)
chain: SGGSGAEYVRALFDFNGNDEEDLPFKKGDILRIRDKPEEQWWNAEDSEGKRGMIPVPYVEKYRPASASVSALIGGRGGSGGSGGSGGSGGSGGSSKALLKGVRDFNPISACVCLLENSSDGHSERLFGIGFGPYIIANQHLFRRNNGELTIKTMHGEFKVKNSTQLQMKPVEGRDIIVIKMAKDFPPFPQKLKFRQPTIKDRVCMVSTNFQQKSVSSLVSESSHIVHKEDTSFWQHWITTKDGQCGSPLVSIIDGNILGIHSLTHTTNGSNYFVEFPEKFVATYLDAADGWCKNWKFNADKISWGSFILWESGSPELGFSISGGVGGRGNPFRPDDDGIFVTRVQPEGPASKLLQPGDKIIQANGYSFINIEHGQAVSLLKTFQNTVELIIVREVGNGAKQEIRVRVEKDGGSGGGGVSSVPTNLEVVAATPTSLLISWDAYRELPVSYYRITYGETGGNSPVQEFTVPGSKSTATISGLKPGVDYTITVYAHYNYHYYSSPISINYRGPGREYVRFAPGSTHHHHHH
modifications: protease construct

One data set concerns the target T1, bovine thrombin (Bos taurus, UniProt P00735).
T1 construct: addition of bovine thrombin (1 U per 200 μL)
The experiment in a line: Thrombin induction of autoinhibited TVMV-based biosensor protease activity (quenched fluorescent TVMV substrate). The format is biochemical. The note with it: biosensor 1 μM, 10 μM protease substrate, presence vs absence of bovine thrombin (1 U per 200 μL). The protocol: Libraries of autoinhibited TVMV mutants were transformed into chemically competent BL21(DE3)-RIL cells hosting the autolysis plasmid 05665 (FIG. 2A) and plated onto LB agar plates supplemented with 100 μg/mL carbenicillin, 50 μg/mL kanamycin and 34 μg/mL chloramphenicol. Following overnight incubation at 37° C., single colonies were inoculated into 96 deep-well plates filled with minimal auto-induction medium (1 mL) which was supplemented with 100 μg/mL carbenicillin, 50 μg/mL kanamycin and 34 μg/mL chloramphenicol. Cells were left to grow for 72 h at 30° C. at 320 rpm and typically reached OD values of approximately 10. To lyse cells, aliquots of cell cultures (100 μL) from half a 96-well-plate (48 samples) were diluted two-fold into autolysis medium (100 μL) and left to incubate for 90 min at 30° C. at 200 rpm. Aliquots of cell lysates (10 μL) were duplicated after transferring them into separate halves of a black 96-well-plate filled with protease assay buffer (140 μL). One of the halves additionally contained 1 U thrombin in order to cleave the linker connecting TVMV to its autoinhibition domain and relieve autoinhibtion. The reaction was initiated following the addition of substrate solution (50 μL) which gave rise to 10 μM TVMV substrate peptide in the final reaction. The reaction was monitored using a fluorometer (Biotek Synergy 4) by measuring the release of a quenched fluorophore (7-Methoxycoumarinyl-4-acetyl) at 405 nm following excitation at 330 nm. The induction of TVMV-based protease activities was evaluated by comparing the time course of the reactions in the presence and absence of thrombin. The plasmids encoding for desirable mutants were subsequently isolated from single colonies and their identity confirmed by Sanger sequencing.
To measure induction ratios under saturating reaction conditions, TVMV- and HCV-based signal transducers (5 μg) were pre-incubated for 10 min in 150 μL protease assay buffer (50 mM Tris-HCl, 1 mM DTT and 0.5 mM EDTA, pH 8.0 for TVMV, and 50 mM Tris-HCl, 50 mM NaCl and 1 mM DTT, pH 8.0 for HCV) in the presence and absence of the inducing protease: i.e. 1 U thrombin, 1 U Factor Xa, 5 μg PSA, 1 μg MMP-7 and 1 μg for MMP-9 for TVMV-based signal transducers as indicated, and 5 μg TVMV for HCV-based signal transducers. The reaction was initiated following the addition of 50 μL substrate solution that contained 40 μM peptide substrate and gave rise to 10 μM peptide substrate in a final reaction volume of 200 μL. The reaction was monitored using a fluorometer (Biotek Synergy 4) by measuring the release of 7-Methoxycoumarinyl-4-acetyl from the quenched substrate peptide at 405 nm following excitation at 330 nm. The induction ratio of TVMV-based protease activities in the inhibited and uninhibited state was evaluated by comparing the reaction in the presence and absence of the activating protease. Activity traces labelled as ‘Background’ generally denote control samples that contain peptide substrate, but no enzyme.
The biosensor (1 μM) was incubated together with 10 μM protease substrate in 50 mM Tris-HCl, 1 mM DTT and 0.5 mM EDTA. Relief of autoinhibition was achieved upon addition of bovine thrombin (1 U per 200 μL).
As to B1, the “Fold Induction” value is recorded as roughly 60 fold.

As for B2, the “Fold Induction” value is given as roughly 100 fold.

For the molecule B3, the “Fold Induction” value is roughly 60 fold.

Consider B4, for which the “Fold Induction” value is given as ~150-200 fold.

Turning to B5, the “Fold Induction” value is reported as roughly 50 fold.

For B6, the “Fold Induction” value is recorded as roughly 25 fold.

For B7, the “Fold Induction” value was roughly 17 fold.

A further data set has as its target T2, PDZ ligand peptide-1 (RGSIDTWV) (Homo sapiens, UniProt Q96RT1).
T2 construct: made in house; host or cells: E. coli BL21(DE3)-RIL
The experiment in a line: Protease signalling cascade: SH3-tagged TVMV-based allosteric receptor coupled to HCV-based signal amplifier, ligand titration. The format is biochemical.
Conditions: not given
The protocol: Signalling cascades consisting of SH3-domain-tagged TVMV-based allosteric receptors (10 nM) and SH3-peptide-tagged TVMV-inducible HCV-based signal transducers (200 nM) were measured in protease assay buffer consisting of 50 mM Tris-HCl, 200 mM NaCl and 1 mM DTT, pH 8.0. The reaction was strictly initiated by simultaneously adding the TVMV-based allosteric receptor and HCV substrate peptide to a final concentration of 10 μM along with the PDZ ligand peptide-1 ([…]) at a final concentration of 10 μM. To determine the KD of TVMV-based allosteric receptors, the PDZ ligand peptide-1 ([…]) was suitably diluted over a concentration range from 2 nM to 400 nM as indicated in FIG. 13B. To determine the KD, initial rates were plotted against ligand concentrations and the fitted values analysed by non-linear regression assuming a one-site specific binding model (GraphPad Prism 5).
For B8, the “improvement of the sensitivity of the assay” value came out at 20 fold.

Still in this data set, the particulars now being: FIG. 13B.
B8: the “concentration of receptor faithfully detected” value was found to be 5 nM.
